{"source": "patent US20090047285A1", "about": "(ONCOMED PHARMACEUTICALS, published 2009)", "key": {"[1]": {"target": "T1, mNotch1 glutamate ligand binding region protein (EGF10-15), immobilized on a CM5 chip (mouse, UniProt Q01705 375-601)", "T1 construct": "domain: EGF10-15", "T1 sequence (looked up)": "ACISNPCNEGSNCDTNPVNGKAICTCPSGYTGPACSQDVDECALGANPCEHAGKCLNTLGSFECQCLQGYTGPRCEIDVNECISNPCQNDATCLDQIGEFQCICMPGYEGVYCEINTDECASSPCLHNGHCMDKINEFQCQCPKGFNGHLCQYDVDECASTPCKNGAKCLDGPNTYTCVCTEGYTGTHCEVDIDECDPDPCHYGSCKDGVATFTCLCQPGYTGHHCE", "experiment": "Biacore 2000, Notch EGF10-15 protein on CM5 chip, antibody 25 to 0.20 nM", "description": "(§1) The KD's of certain anti-Notch glutamate ligand binding region antibodies were determined using the Biacore 2000 system from Biacore Lifesciencse (GE Healthcare). Specifically, purified anti-Notch glutamate ligand binding region antibodies were serially diluted in 2-fold increments from 25 to 0.20 nM in PBS with HBS-P (0.01 M HEPES pH 7.4, 0.15 M NaCl, 0.005% v/v Surfactant P20). Each dilution was tested against Notch glutamate ligand binding region proteins (EGF10-15) immobilized onto a CM5 Biacore chip. The association and dissociation rates were measured and KD values determined using the Biaevaluation software program. NB in the table below means a binding affinity as measured by a KD that is at least ten-fold weaker than the notch-ligand (delta-like ligand) affinity constant."}, "[2]": {"target": "T2, hNotch1 glutamate ligand binding region protein (EGF10-15), immobilized on a CM5 chip (human, UniProt P46531 375-601)", "T2 construct": "domain: EGF10-15", "experiment": "Biacore 2000, Notch EGF10-15 protein on CM5 chip, antibody 25 to 0.20 nM", "description": "as §1"}, "[3]": {"target": "T3, full length Notch1 E424Q, expressed on HEK 293 cells (human, UniProt P46531 19-2555)", "T3 construct": "whole, on cells; also called mutated receptor (E424Q)", "T3 sequence (P46531 19-2555 E424Q)": "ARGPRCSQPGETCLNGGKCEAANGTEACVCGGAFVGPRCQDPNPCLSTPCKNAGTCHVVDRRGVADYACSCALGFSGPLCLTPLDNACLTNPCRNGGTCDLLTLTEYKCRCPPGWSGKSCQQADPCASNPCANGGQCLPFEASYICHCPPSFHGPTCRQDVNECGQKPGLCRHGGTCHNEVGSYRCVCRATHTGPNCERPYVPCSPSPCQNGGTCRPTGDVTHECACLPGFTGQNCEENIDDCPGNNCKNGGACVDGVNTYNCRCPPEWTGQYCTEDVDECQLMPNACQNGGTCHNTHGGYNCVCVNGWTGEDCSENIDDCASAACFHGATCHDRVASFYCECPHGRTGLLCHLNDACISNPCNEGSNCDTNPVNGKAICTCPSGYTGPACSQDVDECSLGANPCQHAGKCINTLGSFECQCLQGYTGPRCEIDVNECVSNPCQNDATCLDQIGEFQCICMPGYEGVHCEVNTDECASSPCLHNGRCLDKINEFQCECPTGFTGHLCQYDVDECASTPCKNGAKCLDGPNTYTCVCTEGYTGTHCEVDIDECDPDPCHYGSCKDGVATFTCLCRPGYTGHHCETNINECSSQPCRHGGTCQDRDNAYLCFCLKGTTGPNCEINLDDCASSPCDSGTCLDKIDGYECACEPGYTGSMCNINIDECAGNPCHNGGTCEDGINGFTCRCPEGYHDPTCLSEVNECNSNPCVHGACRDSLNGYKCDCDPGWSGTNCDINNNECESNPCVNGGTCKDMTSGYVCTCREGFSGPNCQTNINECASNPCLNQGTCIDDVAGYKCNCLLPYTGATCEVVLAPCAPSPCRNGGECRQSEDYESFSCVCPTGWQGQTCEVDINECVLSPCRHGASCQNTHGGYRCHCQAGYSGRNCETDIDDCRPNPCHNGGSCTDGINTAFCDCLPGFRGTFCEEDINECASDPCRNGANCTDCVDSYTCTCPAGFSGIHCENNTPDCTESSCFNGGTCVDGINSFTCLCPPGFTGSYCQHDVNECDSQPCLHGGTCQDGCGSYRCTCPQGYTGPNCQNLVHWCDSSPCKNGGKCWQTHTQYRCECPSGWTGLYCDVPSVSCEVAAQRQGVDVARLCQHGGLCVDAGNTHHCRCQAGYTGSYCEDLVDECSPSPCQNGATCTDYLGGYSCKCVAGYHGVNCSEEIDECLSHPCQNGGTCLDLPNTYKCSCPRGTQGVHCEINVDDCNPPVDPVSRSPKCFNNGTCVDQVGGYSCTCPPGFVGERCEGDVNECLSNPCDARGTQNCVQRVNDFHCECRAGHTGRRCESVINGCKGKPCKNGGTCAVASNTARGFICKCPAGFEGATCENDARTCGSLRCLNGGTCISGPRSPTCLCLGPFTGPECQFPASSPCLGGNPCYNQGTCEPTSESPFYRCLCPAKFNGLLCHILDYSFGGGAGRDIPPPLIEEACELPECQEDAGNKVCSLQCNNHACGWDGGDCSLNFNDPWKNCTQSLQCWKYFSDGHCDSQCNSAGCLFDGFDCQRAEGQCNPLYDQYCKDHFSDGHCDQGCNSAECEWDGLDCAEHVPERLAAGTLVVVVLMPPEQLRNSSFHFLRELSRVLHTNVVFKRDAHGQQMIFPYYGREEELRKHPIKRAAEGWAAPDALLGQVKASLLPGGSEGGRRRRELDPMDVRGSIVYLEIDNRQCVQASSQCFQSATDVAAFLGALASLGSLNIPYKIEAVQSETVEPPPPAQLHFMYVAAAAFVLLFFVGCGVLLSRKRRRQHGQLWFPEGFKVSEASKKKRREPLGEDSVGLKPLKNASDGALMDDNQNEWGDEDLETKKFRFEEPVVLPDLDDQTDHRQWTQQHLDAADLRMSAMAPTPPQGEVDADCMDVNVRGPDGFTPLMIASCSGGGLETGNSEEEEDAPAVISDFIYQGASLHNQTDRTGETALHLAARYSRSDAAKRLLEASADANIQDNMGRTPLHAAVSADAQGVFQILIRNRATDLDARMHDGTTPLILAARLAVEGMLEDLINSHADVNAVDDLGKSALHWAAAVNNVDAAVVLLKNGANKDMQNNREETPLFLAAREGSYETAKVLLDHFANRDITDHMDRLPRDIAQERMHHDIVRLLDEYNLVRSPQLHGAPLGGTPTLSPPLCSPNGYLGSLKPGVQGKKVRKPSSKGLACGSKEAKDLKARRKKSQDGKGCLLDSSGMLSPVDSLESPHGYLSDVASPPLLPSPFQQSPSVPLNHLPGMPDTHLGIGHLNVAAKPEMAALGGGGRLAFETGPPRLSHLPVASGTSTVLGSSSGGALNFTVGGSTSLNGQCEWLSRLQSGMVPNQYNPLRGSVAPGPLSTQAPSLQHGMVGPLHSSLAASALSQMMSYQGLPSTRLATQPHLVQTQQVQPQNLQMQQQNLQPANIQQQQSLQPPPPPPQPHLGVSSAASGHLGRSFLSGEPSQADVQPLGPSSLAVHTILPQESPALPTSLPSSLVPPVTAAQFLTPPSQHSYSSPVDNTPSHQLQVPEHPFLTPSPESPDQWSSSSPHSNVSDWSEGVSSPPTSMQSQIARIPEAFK", "experiment": "FACS on transfected HEK 293 cells (FIG. 5)"}, "mNotch3(EGF9-14)Fc": {"target": "T4, mNotch3(EGF9-14)Fc (mouse, UniProt Q61982 352-581)", "T4 construct": "domain: EGF9-14; also called murine Notch3; selected antigen; not shown: Fc", "T4 sequence (looked up)": "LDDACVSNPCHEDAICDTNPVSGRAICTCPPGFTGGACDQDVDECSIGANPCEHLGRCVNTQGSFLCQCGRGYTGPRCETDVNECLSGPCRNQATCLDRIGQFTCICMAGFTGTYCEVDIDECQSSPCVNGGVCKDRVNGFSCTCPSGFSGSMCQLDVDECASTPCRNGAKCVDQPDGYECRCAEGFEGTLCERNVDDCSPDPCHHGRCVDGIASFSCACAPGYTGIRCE", "experiment": "survey of fAbs after phage display selection on mNotch3(EGF9-14)Fc"}, "[4]": {"target": "T5, hNotch3 glutamate ligand binding region protein (EGF10-15 as printed), immobilized on a CM5 chip (human, UniProt Q9UM47 351-580)", "T5 construct": "domain: EGF10-15; For Notch3 the equivalent repeats would be EGF9-14", "T5 sequence (looked up)": "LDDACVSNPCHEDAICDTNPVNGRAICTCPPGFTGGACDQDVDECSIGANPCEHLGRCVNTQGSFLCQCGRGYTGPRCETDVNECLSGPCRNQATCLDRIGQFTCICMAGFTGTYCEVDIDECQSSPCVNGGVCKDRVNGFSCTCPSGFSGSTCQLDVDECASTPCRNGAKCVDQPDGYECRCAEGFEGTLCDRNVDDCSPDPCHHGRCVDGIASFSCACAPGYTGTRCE", "experiment": "Biacore 2000, Notch ligand binding region protein on CM5 chip, antibody 25 to 0.20 nM", "description": "as §1"}}}
{"binder": "90R21 (antibody, V domains shown, also called ATCC deposit No. PTA-8909) VH: EVQLLESGGGLVQPGGSLRLSCAASGFTFSNYGMSWVRQAPGKGLEWVSSISGYGSNTYYADSVKGRFTISRDNSKNTLYLQMNSLRAEDTAVYYCARISQQAVWGQGTLVTVSS VL: QSALTQPASVSGSPGQSITISCTGTSSDIGGYQYVSWYQQHPGKAPKLMIYYVSNRPSGVSNRFSGSKSGNTASLTISGLQAEDEADYYCQSADSSSWVFGGGTKLTVLG", "values": [{"measurement": "Kd", "setting": "[1]", "result": 0.25, "unit": "nM"}, {"measurement": "Kd", "setting": "[2]", "result": "< 0.1", "unit": "nM"}]}
{"binder": "122R5 (Fab, V domains shown, Human fAb from phage display; also called fAb122R5; lead fAb, 122R5) VH: QVQLVESGGGLVQPGGSLRLSCAASGFTFSDNAIHWVRQAPGKGLEWVSAISSYGSGTYYADSVKGRFTISRDNSKNTLYLQMNSLRAEDTAVYYCARPGFQFSFTFMDIWGQGTLVTVSS VL: DIELTQPPSVSVAPGQTARISCSGDALGSKYASWYQQKPGQAPVLVIYDDKNRPSGIPERFSGSNSGNTATLTISGTQAEDEADYYCQSWDGKSKVVFGGGTKLTVLG", "values": [{"measurement": "Kd", "setting": "[2]", "result": 4.25, "unit": "nM"}, {"measurement": "binding result", "setting": "[3]", "result": "no binding"}, {"measurement": "binding result", "setting": "mNotch3(EGF9-14)Fc", "result": "binds"}, {"measurement": "Kd", "setting": "[4]", "result": "< 0.1", "unit": "nM"}]}
